Where a chain is given by its changes, count along the chain named.
Tests used:
Assay in all cases: pull-down; GST-yNpl4 (0.5 μM, wild type or mutant) on Glutathione Sepharose 4B beads, 1 h at room temperature with 0.5 μM yUfd1, 3 μM Cdc48 (0.5 μM hexamer) and 1 μg K48 chains in 100 μL 50 mM Tris-HCl pH 7.5, 100 mM NaCl, 10% glycerol, 0.1% Triton X-100; chains detected by anti-Ub immunoblot, proteins by Ponceau S
Details in all cases: both partners purified
GST-yNpl4 M574A = target: T1, GST-yNpl4 M574A (Saccharomyces cerevisiae, UniProt P33755 1-580, M574A)
T1 construct: Npl4 of Saccharomyces cerevisiae (yNpl4), full length; source: E. coli Rosetta (DE3) (pGEX-6P1), purified (Glutathione Sepharose FF, Resource Q); not shown: GST, N-terminal, kept
T1 sequence (looked up): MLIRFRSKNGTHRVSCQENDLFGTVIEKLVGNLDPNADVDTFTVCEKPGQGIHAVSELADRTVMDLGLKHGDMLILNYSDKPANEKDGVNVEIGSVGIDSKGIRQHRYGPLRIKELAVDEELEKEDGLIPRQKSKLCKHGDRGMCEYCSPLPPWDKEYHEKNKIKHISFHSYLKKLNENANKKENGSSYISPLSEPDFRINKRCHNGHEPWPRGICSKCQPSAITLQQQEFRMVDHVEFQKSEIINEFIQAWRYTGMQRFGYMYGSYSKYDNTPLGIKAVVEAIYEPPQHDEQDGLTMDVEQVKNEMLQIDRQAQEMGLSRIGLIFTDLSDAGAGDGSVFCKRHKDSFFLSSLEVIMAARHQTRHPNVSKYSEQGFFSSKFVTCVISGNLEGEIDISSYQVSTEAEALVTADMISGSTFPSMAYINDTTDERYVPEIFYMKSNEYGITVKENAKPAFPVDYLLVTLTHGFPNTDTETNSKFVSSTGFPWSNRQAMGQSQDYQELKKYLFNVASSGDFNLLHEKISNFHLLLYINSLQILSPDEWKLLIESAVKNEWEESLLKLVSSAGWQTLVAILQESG

GST-yNpl4 M574Q = target: T2, GST-yNpl4 M574Q (Saccharomyces cerevisiae, UniProt P33755 1-580, M574Q)
T2 construct: Npl4 of Saccharomyces cerevisiae (yNpl4), full length; source: E. coli Rosetta (DE3) (pGEX-6P1), purified (Glutathione Sepharose FF, Resource Q); not shown: GST, N-terminal, kept
T2 sequence (looked up): T1 sequence (looked up) with A574Q

GST-yNpl4 I575A = target: T3, GST-yNpl4 I575A (Saccharomyces cerevisiae, UniProt P33755 1-580, I575A)
T3 construct: Npl4 of Saccharomyces cerevisiae (yNpl4), full length; source: E. coli Rosetta (DE3) (pGEX-6P1), purified (Glutathione Sepharose FF, Resource Q); not shown: GST, N-terminal, kept
T3 sequence (looked up): T1 sequence (looked up) with A574M, I575A

Measured: binding result

B1: yUfd1 (full length, untagged) (natural protein, Saccharomyces cerevisiae, UniProt P53044 1-361, looked up)
chain: MFSGFSSFGGGNGFVNMPQTFEEFFRCYPIAMMNDRIRKDDANFGGKIFLPPSALSKLSMLNIRYPMLFKLTANETGRVTHGGVLEFIAEEGRVYLPQWMMETLGIQPGSLLQISSTDVPLGQFVKLEPQSVDFLDISDPKAVLENVLRNFSTLTVDDVIEISYNGKTFKIKILEVKPESSSKSICVIETDLVTDFAPPVGYVEPDYKALKAQQDKEKKNSFGKGQVLDPSVLGQGSMSTRIDYAGIANSSRNKLSKFVGQGQNISGKAPKAEPKQDIKDMKITFDGEPAKLDLPEGQLFFGFPMVLPKEDEESAAGSKSSEQNFQGQGISLRKSNKRKTKSDHDSSKSKAPKSPEVIEID
notes: Ufd1 of Saccharomyces cerevisiae (yUfd1), full length; codon-optimized synthetic cDNA; removal of GST by HRV3C is surmised; also called untagged Ufd1; source: E. coli Rosetta (DE3) (pGEX-6P1), purified
binds: all assays above

— paper PMC6910952 (Nature Communications, 2019)
